Read-outs that look alike come from different tables or passages of the source.
Assays:
PC-3 tumors [1] = experiment: Tumor histology and Ki-67 immunostaining; format: in vivo, athymic nude mice
Protocol: The kidneys, pancreas, livers, and tumors of 4 control mice and 4 treated mice were harvested and fixed in neutral buffered formalin. After fixation and dehydration, tissue samples were embedded in paraffin, and tissue sections were then stained with either hematoxylin and eosin (H&E) or Ki-67 for microscopic examination. H&E staining of tissue samples was prepared by the Anatomic and Molecular Pathology Core Lab, Washington University in St Louis. Ki-67 immunostaining was performed on 5 µm tissue sections of PC-3 tumors. The slides were baked in 55 °C oven for 60 min. The sections were deparaffinized, and heat-induced antigen retrieval was performed in citrate buffer 0.1 M pH 6.0 at 92 °C. After 20 min, the slides were cooled in 4 °C fridge for 15 min. The sections were then blocked with Dako Endogenous Enzyme Block (Dako North America, Inc., Carpinteria, CA, USA) for 10 min and washed twice with Dako Wash Buffer 1X. The sections were blocked with 10% goat serum in PBS for another 45 min and washed 2 × 5 min with Dako Wash Buffer 1X. The slides were then rinsed and incubated with Ki-67 antibody (1:100 dilution) overnight at 4 °C. […] Staining results were assessed by Olympus fluorescent microscope (BX51) and the cell Sense software in a blinded manner.

[2] = Treatment-related toxicity (body weight, H&E histology of kidney, pancreas, liver); format: in vivo, athymic nude mice
Protocol: (§1) To assess the therapeutic potential of [^67Cu]Cu-SAR-BBN, athymic nude mice bearing subcutaneous PC-3 tumors with a tumor size of ~150 mm^3 were randomly assigned into 2 groups (n = 12 mice per group). For treatment, mice were dosed intravenously with three injections of 24 MBq [^67Cu]Cu-SAR-BBN on days 0, 2, and 4, followed by a drug-free week before the injections of 24 MBq on days 14, 16, and 18. The total activity injected corresponded to 144 MBq. The control group was injected via tail vein with six injections of 0.9% saline at the same time points. Body weight and tumor volume (through caliper measurements) were monitored and recorded three times a week. Tumor size was calculated by the following formula: L × W^2/2, where L is the long diameter of the tumor and W is the short diameter of the tumor. […] Any remaining mice at day 54 were euthanized, and tumor volume and survival curves were generated and analyzed to evaluate the efficacy of [^67Cu]Cu-SAR-BBN. Percentage tumor growth inhibition was calculated as 100 × (1 − ΔT/ΔC), where ΔC and ΔT were determined by subtracting the mean tumor volume (in the vehicle control and treated group, respectively) on day 0 of treatment from the mean tumor volume on day 19 (the last day all mice remained in the study). […]

PC-3 tumors [3] = experiment: Therapy study in PC-3 tumor-bearing mice; format: in vivo, athymic nude mice
Protocol: as §1

[4] = format: in vitro ADME, human
Protocol: (§2) Briefly, 100 µL of the radiolabeled complex was added to 100 µL PBS 1X or human serum (HSA […]) in triplicate. [^67Cu]Cu-SAR-BBN was incubated at 37 °C for 14, 24, 48, 72, and 96 h with moderate agitation. An aliquot (0.5 μL) was withdrawn at each specified time point. Radio-TLCs with a mobile phase of 50 mM DTPA were performed to evaluate the percentage of intact radiolabeled peptides.

Stability in PBS 1X = format: physicochemical; details: 1:1 with radiolabeled complex, 37 °C, 96 h, moderate agitation, radio-TLC, 50 mM DTPA, triplicate
Protocol: as §2

[5] = Biodistribution in normal tissues; format: in vivo, C57BL/6 female mice; details: for tissue uptake at 2 h / tissue uptake at 4 h / tissue uptake at 6 h / tissue uptake at 24 h / tissue uptake at 72 h / tissue uptake at 144 h / tissue uptake at 216 h / tissue uptake at 1 h: female, C57BL/6, mouse, iv, 0.37 MBq, total radioactivity
Protocol: To determine the biodistribution of [^67Cu]Cu-SAR-BBN in normal tissues, 40 female C57BL/6 mice were evaluated in groups of 5 mice at various time points. [^67Cu]Cu-SAR-BBN was prepared in 0.9% saline with a concentration of 0.37 MBq (10 µCi) per 100 µL. Mice (n = 5) were injected with 0.37 MBq radiotracers via tail vein and sacrificed by cervical dislocation at 1 h, 2 h, 4 h, 6 h, 24 h, 3 days, 6 days, and 9 days. Blood, lung, liver, spleen, kidney, muscle, heart, bone, and pancreas were harvested and counted for activity on a gamma counter. The percent injected dose per gram for each tissue of interest (% ID/g) was calculated and expressed as Mean ± SD. All radioactivity measurements were corrected for decay.

[6] = test system: GRPR-positive PC-3 cell line; experiment: Cell binding and internalization; format: cell-based; details: PC-3 cells
Protocol: The PC-3 cell line was purchased from ATCC (Manassas, VA, USA), revived from liquid nitrogen storage, and cultured at 37 °C, 5% CO2. PC-3 cells were cultured in media containing DMEM, 10% heat-inactivated fetal bovine serum (FBS) (Gibco, Thermo Fisher Scientific, Inc., Waltham, MA, USA), and 10 mM HEPES.
A PC-3 cell suspension was prepared in 1X PBS at a concentration of 10^6 cells/100 μL. Eppendorf tubes (in triplicates) were pretreated with 5% bovine serum albumin (BSA) in PBS to block non-specific binding. Tyr^4-BBN, as a blocking agent, was diluted in 5% BSA in PBS. Then, 100 μL of cells and either 20 μg block or PBS 1X were added to each tube. Approximately 100,000 cpm of [^67Cu]Cu-SAR-BBN was added to the tubes. Cells were incubated at 37 °C at moderate speed to prevent cell settling. After each specified time point (30, 60, 120, 240, and 360 min), cells were centrifuged and the supernatant was aspirated from cell pellets, which was followed by two additional rinses with ice-cold PBS. Cells pellets were then collected and counted for activity on a gamma counter. To determine the fraction of internalized radiotracer, cells were treated with 2 × 0.5 mL of 20 mM sodium acetate (pH 4.0) for 2 min to remove surface-bound radioactivity and counted again for activity.

Question: Which results are given for `CC(C)C[C@H](NC(=O)C[C@H](O)[C@H](CC(C)C)NC(=O)[C@H](Cc1c[nH]cn1)NC(=O)CNC(=O)[C@@H](NC(=O)[C@H](C)NC(=O)[C@H](Cc1c[nH]c2ccccc12)NC(=O)[C@H](CCC(N)=O)NC(=O)[C@@H](Cc1ccccc1)NC(=O)CCOCCOCCOCCOCCNC(=O)CCCC(=O)NC12CNCCNCC(C)(CNCCNC1)CNCCNC2)C(C)C)C(N)=O` [[^67Cu]Cu-SAR-BBN, metal not drawn]?
Answer: tumor necrosis (blinded review of tumor samples) (PC-3 tumors [1]; 4 tumors per group): more extensive areas of necrosis in three out of four tumors; mean proliferation index (PI), Ki-67 (PC-3 tumors [1]; tumor areas without necrosis, immune infiltrate or host stroma, 4 tumors, control 38.1%, p = 0.26): 50.3%; histological changes in kidney, pancreas and liver vs control (H&E) ([2]; mouse, in vivo): no significant histological changes; deaths or euthanasia not related to tumor volume ([2]; treated group, n = 12, censored in the survival analysis): one mouse from the [^67Cu]Cu-SAR-BBN group was euthanized due to tumor ulceration (day 38), and another two died due to unknown causes (day 5 and day 22); rapid recurrence of tumor needing early sacrifice (PC-3 tumors [3]; 144 MBq over 3 weeks): no animals having a rapid recurrence; median survival (time to tumor endpoint of 2500 mm^3) (PC-3 tumors [3]; six i.v. doses of 24 MBq, total 144 MBq, n = 12, study ended day 54, control 34.5 days, p = 0.0015): greater than 54 days; free 67Cu in human serum [4]: < 5%; intact radiolabeled peptide in PBS 1X (Stability in PBS 1X): greater than 95%; Kidney %ID/g ([5]; 1 h after i.v. injection of 0.37 MBq, mean, n = 5): 6.15 %ID/g; tissue uptake at 2 h ([5]; in vivo, Blood %ID/g): 0.62 %ID/g; tissue uptake at 4 h ([5]; in vivo, Blood %ID/g): 0.53 %ID/g; tissue uptake at 6 h ([5]; in vivo, Blood %ID/g): 0.54 %ID/g; tissue uptake at 24 h ([5]; in vivo, Blood %ID/g): 0.33 %ID/g; tissue uptake at 72 h ([5]; in vivo, Blood %ID/g): 0.39 %ID/g; tissue uptake at 144 h ([5]; in vivo, Blood %ID/g): 0.11 %ID/g; tissue uptake at 216 h ([5]; in vivo, Blood %ID/g): 0.06 %ID/g; tissue uptake at 1 h ([5]; in vivo, Bone %ID/g): 0.88 %ID/g; tissue uptake at 2 h ([5]; in vivo, Bone %ID/g): 0.4 %ID/g; tissue uptake at 4 h ([5]; in vivo, Bone %ID/g): 0.47 %ID/g; tissue uptake at 6 h ([5]; in vivo, Bone %ID/g): 0.46 %ID/g; tissue uptake at 24 h ([5]; in vivo, Bone %ID/g): 0.31 %ID/g; tissue uptake at 72 h ([5]; in vivo, Bone %ID/g): 0.25 %ID/g; tissue uptake at 144 h ([5]; in vivo, Bone %ID/g): 0.09 %ID/g; tissue uptake at 216 h ([5]; in vivo, Bone %ID/g): 0.09 %ID/g; tissue uptake at 1 h ([5]; in vivo, Heart %ID/g): 1 %ID/g; tissue uptake at 2 h ([5]; in vivo, Heart %ID/g): 0.58 %ID/g; tissue uptake at 4 h ([5]; in vivo, Heart %ID/g): 0.78 %ID/g; tissue uptake at 6 h ([5]; in vivo, Heart %ID/g): 0.84 %ID/g; tissue uptake at 24 h ([5]; in vivo, Heart %ID/g): 0.84 %ID/g; tissue uptake at 72 h ([5]; in vivo, Heart %ID/g): 1.35 %ID/g; tissue uptake at 144 h ([5]; in vivo, Heart %ID/g): 0.93 %ID/g; tissue uptake at 216 h ([5]; in vivo, Heart %ID/g): 0.58 %ID/g; tissue uptake at 2 h ([5]; in vivo, Liver %ID/g): 5.08 %ID/g; tissue uptake at 4 h ([5]; in vivo, Liver %ID/g): 5.9 %ID/g; tissue uptake at 6 h ([5]; in vivo, Liver %ID/g): 6.78 %ID/g; tissue uptake at 24 h ([5]; in vivo, Liver %ID/g): 3.8 %ID/g; tissue uptake at 72 h ([5]; in vivo, Liver %ID/g): 4.03 %ID/g; tissue uptake at 144 h ([5]; in vivo, Liver %ID/g): 1.31 %ID/g; tissue uptake at 216 h ([5]; in vivo, Liver %ID/g): 0.59 %ID/g; tissue uptake at 2 h ([5]; in vivo, Lung %ID/g): 1.95 %ID/g; tissue uptake at 4 h ([5]; in vivo, Lung %ID/g): 2.68 %ID/g; tissue uptake at 6 h ([5]; in vivo, Lung %ID/g): 3.25 %ID/g; tissue uptake at 24 h ([5]; in vivo, Lung %ID/g): 1.81 %ID/g; tissue uptake at 72 h ([5]; in vivo, Lung %ID/g): 1.89 %ID/g; tissue uptake at 144 h ([5]; in vivo, Lung %ID/g): 0.68 %ID/g; tissue uptake at 216 h ([5]; in vivo, Lung %ID/g): 0.32 %ID/g; tissue uptake at 1 h ([5]; in vivo, Muscle %ID/g): 0.52 %ID/g; tissue uptake at 2 h ([5]; in vivo, Muscle %ID/g): 0.25 %ID/g; tissue uptake at 4 h ([5]; in vivo, Muscle %ID/g): 0.35 %ID/g; tissue uptake at 6 h ([5]; in vivo, Muscle %ID/g): 0.59 %ID/g; tissue uptake at 24 h ([5]; in vivo, Muscle %ID/g): 0.2 %ID/g; tissue uptake at 72 h ([5]; in vivo, Muscle %ID/g): 0.27 %ID/g; tissue uptake at 144 h ([5]; in vivo, Muscle %ID/g): 0.21 %ID/g; tissue uptake at 216 h ([5]; in vivo, Muscle %ID/g): 0.15 %ID/g; tissue uptake at 2 h ([5]; in vivo, Pancreas %ID/g): 14.7 %ID/g; tissue uptake at 4 h ([5]; in vivo, Pancreas %ID/g): 5.48 %ID/g; tissue uptake at 6 h ([5]; in vivo, Pancreas %ID/g): 3.38 %ID/g; tissue uptake at 24 h ([5]; in vivo, Pancreas %ID/g): 0.55 %ID/g; tissue uptake at 72 h ([5]; in vivo, Pancreas %ID/g): 0.75 %ID/g; tissue uptake at 144 h ([5]; in vivo, Pancreas %ID/g): 0.39 %ID/g; tissue uptake at 216 h ([5]; in vivo, Pancreas %ID/g): 0.22 %ID/g; tissue uptake at 1 h ([5]; in vivo, Spleen %ID/g): 1.94 %ID/g; tissue uptake at 2 h ([5]; in vivo, Spleen %ID/g): 1.27 %ID/g; tissue uptake at 4 h ([5]; in vivo, Spleen %ID/g): 0.94 %ID/g; tissue uptake at 6 h ([5]; in vivo, Spleen %ID/g): 0.9 %ID/g; tissue uptake at 24 h ([5]; in vivo, Spleen %ID/g): 0.51 %ID/g; tissue uptake at 72 h ([5]; in vivo, Spleen %ID/g): 0.74 %ID/g; tissue uptake at 144 h ([5]; in vivo, Spleen %ID/g): 0.3 %ID/g; tissue uptake at 216 h ([5]; in vivo, Spleen %ID/g): 0.14 %ID/g; tissue uptake at 2 h ([5]; kidney, 2 h after i.v. injection of 0.37 MBq, mean, n = 5, read-out: Kidney %ID/g): 3.99 %ID/g; tissue uptake at 4 h ([5]; kidney, 4 h after i.v. injection of 0.37 MBq, mean, n = 5, read-out: Kidney %ID/g): 3.48 %ID/g; tissue uptake at 6 h ([5]; kidney, 6 h after i.v. injection of 0.37 MBq, mean, n = 5, read-out: Kidney %ID/g): 3.53 %ID/g; tissue uptake at 24 h ([5]; kidney, 24 h after i.v. injection of 0.37 MBq, mean, n = 5, read-out: Kidney %ID/g): 2.37 %ID/g; tissue uptake at 72 h ([5]; kidney, 72 h after i.v. injection of 0.37 MBq, mean, n = 5, read-out: Kidney %ID/g): 3.1 %ID/g; tissue uptake at 144 h ([5]; kidney, 6 days after i.v. injection of 0.37 MBq, mean, n = 5, read-out: Kidney %ID/g): 1.37 %ID/g; tissue uptake at 216 h ([5]; kidney, 9 days after i.v. injection of 0.37 MBq, mean, n = 5, read-out: Kidney %ID/g): 0.74 %ID/g; reduction of activity circulating in the blood relative to the 1 h value ([5]; mouse, in vivo): over 70%; bound to the GRPR receptors ([6]; 37 °C): more than 50%; internalized into the cells ([6]; 37 °C): about 20%; total bound with blocking (non-specific binding, % of total added radioactivity) ([6]; excess Tyr4-BBN (20 μg block)): 5.8 ± 0.1%

Source: paper PMC9229378, “Copper-67-Labeled Bombesin Peptide for Targeted Radionuclide Therapy of Prostate Cancer” (Pharmaceuticals, 2022)
